Columns and labels:
[1] = ThT fluorescence enhancement by biopharmaceuticals; type: physicochemical; details: +/− SD; five μL of protein therapeutic
Procedure: (§1) Fluorescence of ThT—protein/peptide adducts was measured as follows. […] Fluorescence was measured at 485 nm upon excitation at 435 nm. Background signals from buffer, buffer with ThT and protein/peptide solution without ThT were subtracted from corresponding measurements with protein solution incubated with ThT. Regularly, fluorescence of Aβ was used as a positive control, and fluorescence of FP10, a non-amyloid fibrin fragment^16, was used as a negative control. Fluorescence was measured in triplicate on a Hitachi F-4500 fluorescence spectrophotometer (Ltd., Tokyo, Japan).
(§2) β2-GPI was reduced and alkylated as follows. Sixhundredforty μl of β2-GPI stock was mixed with 640 μl of 8 M Urea (cooled solution) in 0.1 M Tris pH-8.2. The solution was degassed with N2 gas for approximately 6 minutes. From a 1 M DTT stock 12.8 μl was added to the solution, mixed and incubated for 3 hours at room temperature. A 1 M Iodoacetamide (Sigma; I-6125) was prepared, of which 25.6 μl was added to the β2-GPI reaction mixture. The solution was subsequently dialysed against PBS. […] Signals obtained with alkyl-β2gpi are compared with those obtained with native β2gpi starting material and with positive control acid/heat denatured amyloid-like misfolded γ-globulins.
(§3) Protein therapeutics were obtained from the local hospital pharmacy and analyzed within the expiry limits as stated by the manufacturers.
Fluorescence of Thioflavin T (ThT; Sigma T-3516, St. Louis, Mo., USA) and Congo red (CR; Aldrich Chemical Company Inc., Milwaukee, Wis., USA) was measured on a Hitachi F-4500 spectrophotometer at an excitation wavelength of 435 nm and emission wavelength of 485 nm for ThT and an excitation wavelength of 550 nm and emission wavelength of 595 nm for Congo red. […] Fluorescence was measured in triplicate. Background fluorescence of both protein in buffer and dye-solution were subtracted from the total fluorescence signal. Five μg/mL fibrillar amyloid-β(1-40) E22Q (Peptide Synthesis Facility of the Dutch Cancer Institute NKI, Amsterdam, The Netherlands) was used as a positive control in all fluorescence assays.

[2] = Thioflavin T fluorescence of protein solutions; type: physicochemical
Procedure: as §1
Formulated protein therapeutics were obtained from the local hospital pharmacy and were used as supplied by the manufacturers. […] Lyophilized therapeutics were dissolved according to the manufacturers recommendations. GH, zinc-insulin, Cealb and gelatin were stored at −20, 4, room temperature, 37 and 65° C. Other protein therapeutics were only kept at 4° C., and assayed for the presence of cross-β structure at shown time points. Enhancement in fluorescence of ThT and Congo red was measured with all formulated protein therapeutics. For this purpose, proteins were diluted to the indicated concentrations. […] Zinc-insulin was diluted tenfold in the activation assay, GH was diluted to a final concentration of 500 μg ml^−1. Activation of factor XII and prekallikrein by the therapeutics was tested in the chromogenic factor XII assay (see above). […] After coating, plates were blocked with Blocking Reagent (Roche Diagnostics, Almere, The Netherlands).
ThT fluorescence of β2GPI was measured as follows. […] CL vesicles were prepared according to an established procedure. Briefly, CL was dried under a stream of nitrogen. The lipids were resuspended to a concentration of 10 mg ml^−1 in 25 mM Tris-HCl, pH 7.3, 150 mM NaCl by vigorous agitation, using a vortex. In the ThT fluorescence assay, fluorescence of β2GPI in buffer, of CL or DXS500k in buffer, of buffer and ThT alone, and of β2GPI-CL adducts and β2GPI-DXS500k adducts, with or without ThT, was recorded as described above (section ThT fluorescence). In addition, TEM images were recorded with CL, β2GPI from human plasma, with or without CL, and with recombinant β2GPI, as described^5.
To prepare structurally altered ovalbumin (OVA) with amyloid cross-β structures, purified OVA (Sigma, A-7641, lot 071k7094) was heated to 85° C. One mg ml^−1 OVA in 67 mM NaPi buffer pH 7.0, 100 mM NaCl, was heated for two cycles in PCR cups in a PTC-200 thermal cycler (MJ Research, Inc., Waltham, Mass., USA). In each cycle, OVA was heated from 30 to 85° C. at a rate of 5° C./min. Native OVA (nOVA) and heat-denatured OVA (dOVA) were tested in the ThT fluorescence assay and in the Plg-activation assay. In the fluorescence assay and in the Plg-activation assay, 25 and 100 μg ml^−1 nOVA and dOVA were tested, respectively. TEM images of nOVA and dOVA were taken to check for the presence of large aggregates.
MSA (#126674, Calbiochem) was dissolved in 8 M urea, 100 mM Tris-HCl pH 8.2, at 10 mg ml^−1 final concentration. Dithiothreitol (DTT) was added to a final concentration of 10 mM. Air was replaced by N2 and the solution was incubated for 2 h at room temperature. Then, the solution was transferred to ice and iodoacetamide was added from a 1 M stock to a final concentration of 20 mM. […] In the ThT-fluorescence assay 25 μg ml^−1 nMSA and alkyl-MSA were tested, and in the Plg-activation assay 100 μg ml^−1 was tested. The presence of aggregates or fibrils was analyzed using TEM. […]

tPA = tPA (Homo sapiens, UniProt P00750); assay: tPA/plasminogen activation assay; type: biochemical; details: % of standardized positive control; 1:10 diluted samples
tPA, sequence (P00750 36-562): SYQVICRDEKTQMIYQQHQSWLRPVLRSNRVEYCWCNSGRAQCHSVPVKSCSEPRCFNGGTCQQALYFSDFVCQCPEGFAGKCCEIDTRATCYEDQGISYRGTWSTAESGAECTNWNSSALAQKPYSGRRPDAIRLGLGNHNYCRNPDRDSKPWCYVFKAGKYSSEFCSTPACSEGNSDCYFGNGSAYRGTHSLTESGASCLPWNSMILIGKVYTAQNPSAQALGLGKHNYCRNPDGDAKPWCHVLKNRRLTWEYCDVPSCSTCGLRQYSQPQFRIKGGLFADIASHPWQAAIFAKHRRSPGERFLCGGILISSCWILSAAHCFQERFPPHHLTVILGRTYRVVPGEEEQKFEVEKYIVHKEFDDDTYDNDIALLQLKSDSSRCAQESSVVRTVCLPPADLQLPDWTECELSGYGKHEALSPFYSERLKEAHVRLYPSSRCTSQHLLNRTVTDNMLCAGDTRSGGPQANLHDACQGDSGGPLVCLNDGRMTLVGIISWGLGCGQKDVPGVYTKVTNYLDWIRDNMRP
Procedure: as §2
Exiqon Peptide Immobilizer plates were blocked for 1 hour with PBS, 1% Tween20 and rinsed twice with distilled water. The conversion of the chromogenic substrate S-2251 (Chromogenix, Italy) by plasmin was kinetically measured at 37° C. on a Spectramax340 microplate reader at a wavelength of 405 nm. […] Denatured γ-globulins (100 μg/ml) with amyloid-like structure was used as reference and positive control. Lyophilized γ-globulins (Sigma, Mo., USA) were dissolved in a 1(:)1 volume ratio of 1,1,1,3,3,3-hexafluoro-2-propanol and trifluoro-acetic acid and subsequently dried under air. Dried γ-globulins was dissolved in H2O to a final concentration of 1 mg/ml and kept at room temperature for at least three days and subsequently stored at −20° C.
as §3

| Substance | Fluorescence ThT [1] | enhancement of ThT fluorescence ([2]; after storage at 65° C.) | tPA activation Max. Activation (tPA) [%] | enhancement of ThT fluorescence ([2]; stored at 4° C.) |
| --- | --- | --- | --- | --- |
| Abciximab: abciximab, an inhibitor of blood platelet aggregation (ReoPro, Centocor) | 8 +/− 8 a.u. | enhanced ThT fluorescence | 0 |  |
| Somatropin: human growth hormone (Genotropin, Pharmacia) | 1317 +/− 10 a.u. |  | 113.95 | enhance fluorescence of ThT |
